According to patent US20170226225A1 (Merck Sharp & Dohme, published 2017):

Key:
[1] = biological target: T1, rhesus monkey FXI zymogen (rhesus monkey, UniProt F6PJ95 19-624); experiment: cell-based or functional assay
[2] = biological target: T2, human coagulation Factor XI (FXI) zymogen (human, UniProt P03951 19-625); experiment: cell-based or functional assay
[3] = biological target: T3, cynomolgus monkey FXI zymogen (cynomolgus monkey, UniProt A0A2K5VVW4 19-624); experiment: cell-based or functional assay
cynomolgus monkey FXIa = cynomolgus monkey FXIa (cynomolgus monkey, UniProt A0A2K5VVW4 19-624); experiment: SPR (ProteOn XPR36), antibody captured by anti-human IgG, FXIa as analyte; mean ± SD, N=3
human FXIa = human FXIa (human, UniProt P03951 19-625); experiment: as above
[4] = biological target: T1, rhesus monkey FXI zymogen; experiment: SPR (ProteOn XPR36), antibody captured by anti-human IgG, FXI as analyte; mean ± SD, N=3
Method: (§1) 1 M ethanolamine HCl is then injected across all six vertical flow channels to neutralize remaining reactive surface amines. The anti-FXI antibodies are then injected at 25 μL/minutes for 60 seconds, each into a distinct vertical flow channel coated with capture antibody (L2, L3, L4, L5, or L6), at a concentration of 5 μg/mL in 10 mM sodium acetate, pH 5.0, to achieve saturating capture levels of approximately 80 RU; vertical flow channel L1 is injected with 10 mM sodium acetate, pH 5.0 (buffer alone), as a reference control. After capture of anti-FXI antibodies, running buffer (1×HBS-N, 5 mM CaCl₂, 0.005% P20, pH 7.4) is injected across all horizontal flow channels (A1-A6) for 5 minutes and allowed to dissociate for 20 minutes at 25 μL/minutes to remove any non-specifically bound anti-FXI antibodies from the chip surface. To measure on-rate (kₐ) of human FXI to captured anti-FXI antibodies, a 6-point titration of human FXI zymogen (0, 0.25, 0.5, 1.0, 2.0, 4.0 nM diluted in running buffer) is subsequently injected horizontally across all six vertical flow channels for 8 minutes; the bound zymogen is then allowed to dissociate for 60 minutes in running buffer at 25 μL/min to measure off-rate (kd). Binding kinetics and affinity (KD) may be determined using instrument-specific software (Bio-Rad).
(§2) A GLC low-density sensor chip is washed across all vertical and horizontal flow channels with 0.5% sodium dodecyl-sulfate, 50 mM sodium hydroxide, and 100 mM hydrochloric acid for 60 seconds at 30 μL/second flow rate.

[5] = biological target: T2, human coagulation Factor XI (FXI) …; experiment: as above
Method: as §1, §2

[6] = biological target: T3, cynomolgus monkey FXI zymogen; experiment: as above
Method: as §1, §2

[7] = biological target: T2, human coagulation Factor XI (FXI) …; experiment: cell-based or functional assay; remark: listed apart in the source

Row | Binder | aPTT in rhesus monkey plasma: concentration that prolongs clotting time by 50% (1.5x) [1] [nM] | aPTT in human plasma: concentration that prolongs clotting time by 50% (1.5x) [2] [nM] | aPTT in cynomolgus monkey plasma: concentration that prolongs clotting time by 50% (1.5x) [3] [nM] | Kd (cynomolgus monkey FXIa) [pM] | Kd (human FXIa) [pM] | Kd [4] [pM] | Kd [5] [pM] | Kd [6] [pM] | FXIa Activation Inhibition (EC50, nM); autoactivation of FXI on dextran sulfate, Z-GPR-AFC cleavage [7] [nM]
1 | αFXI-13716-IgG4 (S228P) Q1E M103L (K-)/kappa (antibody, V domains shown, Human IgG4 S228P heavy chain with Q1E and M103L, lacking the C-terminal lysine; kappa light chain) VH: EVQLVQSGAEVKKPGASVKVSCKASGYTFTSYSMHWVRQAPGQGLEWMGIINPSGGSTSYAQKFQGRVTMTRDTSTSTVYMELSSLRSEDTAVYYCARGAYLLELYYYYGMDVWGQGTTVTVSS VL: EIVMTQSPATLSVSPGERATLSCRASQSVSSNLAWYQQKPGQAPRLLIYGASTRATGIPARFSGSGSGTEFTLTISSLQSEDFAVYYCQQFNDWPLTFGGGTKVEIKR | 17.4 | 20.9 | 21.1 | 3.3 | 1.1 | 2 | 2.5 | 6.9 | 11
2 | αFXI-13716p-IgG4 (S228P) (K-)/kappa (antibody, V domains shown, Human IgG4 S228P heavy chain lacking the C-terminal lysine; kappa light chain; also called α13716p-IgG4 (S228P) (K-)/kappa) VH: QVQLVQSGAEVKKPGASVKVSCKASGYTFTSYSMHWVRQAPGQGLEWMGIINPSGGSTSYAQKFQGRVTMTRDTSTSTVYMELSSLRSEDTAVYYCARGAYLMELYYYYGMDVWGQGTTVTVSS VL: EIVMTQSPATLSVSPGERATLSCRASQSVSSNLAWYQQKPGQAPRLLIYGASTRATGIPARFSGSGSGTEFTLTISSLQSEDFAVYYCQQFNDWPLTFGGGTKVEIKR | 19.4 | 21.6 | 22.5 | 3.7 | 1.3 | 3.1 | 3.5 | 7.5 | 4
3 | αFXI-13654p-IgG4 (S228P) (K-)/kappa (antibody, V domains shown, Human IgG4 S228P heavy chain lacking the C-terminal lysine; kappa light chain) VH: EVQLVESGGGLVKPGGSLRLSCAASGFTFSSYSMNWVRQAPGKGLEWVSSISSSSSYIYYADSVKGRFTISRDNAKNSLYLQMNSLRAEDTAVYYCARSYYDYDQGYGMDVWGQGTTVTVSS VL: DIQMTQSPSSVSASVGDRVTITCRASQGISSWLAWYQQKPGKAPKLLIYAASSLQSGVPSRFSGSGSGTDFTLTISSLQPEDFATYYCQQVNSYPITFGGGTKVEIKR | 25 | 16.8 | 21.6 | 2 | 9 | 26.6 | 26.5 | 12.9 | 10
